Measurements from paper doi:10.1101/2025.08.28.672883 (bioRxiv, 2025).
Residue numbers refer to the chain shown, from its start.

What was measured:
Settings in all cases: both partners purified
[1] = molecular target: SARS-CoV-2 Omicron BA.1 spike receptor-binding domain (SARS-CoV-2 Omicron BA.1, S371L | S373P | S375F | Q493R | Q498R | N501Y | Y505H); assay: BLI; Octet Red; […] (20 ug/ml) […]; kinetics buffer 1x PBS pH 7.4, 0.01% BSA, 0.002% Tween 20; 1:1 binding model
[2] = molecular target: SARS-CoV-2 Omicron XBB.1.5 spike receptor-binding domain (SARS-CoV-2 Omicron XBB.1.5, strain); assay: as above
[3] = molecular target: SARS-CoV-2 Omicron BQ.1.1 spike receptor-binding domain (SARS-CoV-2 Omicron BQ.1.1, strain); assay: as above
[4] = molecular target: SARS-CoV-2 Omicron JN.1 spike receptor-binding domain (SARS-CoV-2 Omicron JN.1, strain); assay: as above
[5] = molecular target: SARS-CoV-2 Omicron BA.5 spike receptor-binding domain (SARS-CoV-2 Omicron BA.5, S375F | D405N | N501Y | Y505H); assay: crystal structure

Measured: binding result

B1: ADI-77310 Fab (Fab, V domains shown)
VH: EVQLVESGGGLVKPGGSLRLSCAASGFTFGSYYMNWVRQAPGKGLEWVSSISEDGYSTYYPDSLKGRFTISRDSAKNSLYLQMNSLRADDTAVYYCARDFGGHTAWAGTGFTYWGQGTLVTVSS
VL: QSVLTQPPSVSGAPGQRITISCTGSSSNIGAGYDVHWYQQLPGTAPKLLIYGSSSRNSGVPDRFSGSKSGTSASLAITGLQAEDEADYYCQSYDSDLSVLYTFGTGTKVTVL
binds: [1]

B2: VYD222 Fab (Fab, V domains shown)
VH: B1 VH with Y33E, H103D
VL: B1 VL with S58Y, S98G
binds: all assays above
